Laboratory results taken from the Human Domainome abundance scans (Beltran et al. 2025).

B1: POU domain, class 2, transcription factor 2, residues 200 to 269; numbered along this chain, P09086 (parent)
chain: LEELEQFARTFKQRRIKLGFTQGDVGLAMGKLYGNDFSQTTISRFEALNLSFKNMCKLKPLLEKWLNDAE

Variants of: B1
Experiment: abundance fitness (aPCA) (normalised: wild type 0, dead -1); higher = more abundant; growth selection in yeast, the domain comes from the species named
Conditions: Homo sapiens

Abundance fitness: each site, then its substitutions
G34: M -0.208; K -0.111; S -0.062; V -0.168; Y -0.06; P -0.081; E 0.052; W -0.207; T -0.105; L -0.208; F -0.177; A -0.071; Q 0.087; C -0.143; H -0.018; R -0.132; D -0.065; N -0.068; I -0.248
F45: M -0.109; D -0.916; T -0.989; A -0.78; Q -0.977; C -0.752; E -1.09; H -1.04; R -0.965; Y -0.158; I -0.546; V -0.371; K -0.906; W -0.205; G -1.05
A28: R -0.027; V -0.01; I -0.167; P -0.616; S -0.079; Q 0.061; G -0.098; M -0.047; Y -0.101; T 0.031; K -0.021; N -0.095; H -0.064
I42: Y -0.511; H -1.01; A -0.609; D -0.857; L -0.073; G -1.02; E -0.758; K -0.979; R -1.11; C -0.375; W -0.818; S -0.685; T -0.552; P -0.857; V -0.033; M -0.122; F -0.375; Q -0.559
G30: C -0.068; W -0.013; T 0.009; F -0.001; V -0.052; N 0.019; Y -0.051; Q 0.107; D -0.068; K -0.071; R -0.063; I -0.083; L -0.044; A -0.041; H -0.013; P -0.223; S 0.061
R44: S 0.065; L -0.025; I -0.926; M -0.006; E 0.088; V -0.523; Q 0.125; Y -0.033; A 0.04; W -0.251; F -0.22; K 0.033; D -0.06; N -0.482; P -0.936; G 0.008; C -0.057; H -0.168
S38: N 0.044; I -0.107; V -0.081; G 0.025; Q -0.054; M -0.085; D 0.241; C -0.023; Y -0.234; W -0.157; T -0.004; K -0.055; P -0.065; A -0.014; E -0.015; R -0.037
E46: K -0.431; N -0.973; P -0.885; S -1.05; D -0.942; W -1.02; A -0.765; H -0.944; L -0.904; T -0.87; R -0.993; Y -0.994; I -0.956; C -1.06; F -0.996; G -0.942; V -0.79; Q -1.08
D36: L -0.049; V -0.048; E -0.026; H -0.003; P -0.122; Q -0.047; A -0.05; M -0.162; G -0.06; R -0.034; W -0.052; I -0.057; Y 0.013; N -0.063; F 0.017; C -0.12; S -0.05
A47: M -0.036; K -0.054; F -0.173; N -0.019; D 0.158; I -0.037; G -0.002; H -0.144; L -0.032; E 0.082
F37: M -0.024; Q -0.061; I 0.088; H -0.093; C -0.06; K -0.434
